Data taken from publication PMC7374751, “TIMP-3 facilitates binding of target metalloproteinases to the endocytic receptor LRP-1 and promotes scavenging of MMP-1” (Scientific Reports, 2020).

Columns and labels:
Conditions in all cases: both partners purified
[1] = target: T1, MMP-9 (UniProt P14780 107-707); experiment: enzyme activity of pre-formed complexes against synthetic substrates; 10 nM [35S]TIMP-3 incubated with an equimolar concentration of metalloproteinase for 1 h at 37 °C; complex formation and stability over 24 h checked by activity
T1 construct: MMP-9, active enzyme after removal of the pro-domain with APMA

[2] = target: T2, ectodomain of MMP-14 (UniProt P50281 112-541); experiment: as above
T2 construct: also called MMP-14 ectodomain; MMP-14 catalytic domain

[3] = target: T3, FLAG-tagged ADAMTS-4 lacking the C-terminal spacer domain (ADAMTS4-2) (UniProt O75173 213-685); experiment: as above
T3 construct: ADAMTS-4 lacking the C-terminal spacer domain
T3 sequence (looked up): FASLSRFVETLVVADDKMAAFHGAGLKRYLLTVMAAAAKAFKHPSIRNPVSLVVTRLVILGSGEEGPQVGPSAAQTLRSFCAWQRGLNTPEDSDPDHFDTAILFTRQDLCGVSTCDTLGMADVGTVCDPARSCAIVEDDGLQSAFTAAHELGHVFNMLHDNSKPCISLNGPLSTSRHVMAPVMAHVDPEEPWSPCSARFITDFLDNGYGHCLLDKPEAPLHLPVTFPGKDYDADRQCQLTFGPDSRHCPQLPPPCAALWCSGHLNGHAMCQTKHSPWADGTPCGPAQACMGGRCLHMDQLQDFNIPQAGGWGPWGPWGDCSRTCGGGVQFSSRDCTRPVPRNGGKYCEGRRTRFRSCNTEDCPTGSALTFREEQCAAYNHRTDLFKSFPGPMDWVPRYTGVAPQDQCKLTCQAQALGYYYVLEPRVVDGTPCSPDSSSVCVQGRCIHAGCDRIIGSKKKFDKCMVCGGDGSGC

[4] = target: T4, catalytic domain of human MMP-1 (MMP-1ΔC) (human, UniProt P03956 100-269); experiment: as above
T4 construct: catalytic domain of human MMP-1 (lacks the hemopexin domain); pro-domain removed with APMA
T4 sequence (looked up): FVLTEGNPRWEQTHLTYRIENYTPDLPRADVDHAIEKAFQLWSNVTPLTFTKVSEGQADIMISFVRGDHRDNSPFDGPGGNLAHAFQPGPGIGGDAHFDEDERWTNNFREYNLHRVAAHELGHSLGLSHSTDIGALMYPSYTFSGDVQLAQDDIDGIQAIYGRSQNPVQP

[5] = target: T5, MMP-3 catalytic domain (MMP-3ΔC) (UniProt P08254 100-272); experiment: enzyme inhibition kinetics (fluorogenic peptide substrates); apparent Ki; enzyme pre-incubated with TIMP-3 (0.5-100 nM) 1 h at 37 °C, equilibrium rate of substrate hydrolysis; TNC buffer (50 mM Tris-HCl pH 7.5, 150 mM NaCl, 10 mM CaCl2, 0.05% Brij-35, 0.02% NaN3), 37 °C; tight-binding equation
T5 construct: catalytic domain of MMP-3; pro-domain removed with APMA

[6] = target: T6, MMP-13 (active enzyme of the inhibition assays) (UniProt P45452 20-471); experiment: as above
T6 construct: MMP-13 whose activity was measured (0.1 nM)

[7] = target: T3, FLAG-tagged ADAMTS-4 lacking the …; experiment: as above
[8] = target: T7, ADAM17 ectodomain (UniProt P78536 215-671); experiment: as above
T7 construct: ADAM17 ectodomain from R&D Systems; source: bought: R&D Systems

[9] = target: T4, catalytic domain of human MMP-1 …; experiment: as above

T7 sequence (P78536 215-671): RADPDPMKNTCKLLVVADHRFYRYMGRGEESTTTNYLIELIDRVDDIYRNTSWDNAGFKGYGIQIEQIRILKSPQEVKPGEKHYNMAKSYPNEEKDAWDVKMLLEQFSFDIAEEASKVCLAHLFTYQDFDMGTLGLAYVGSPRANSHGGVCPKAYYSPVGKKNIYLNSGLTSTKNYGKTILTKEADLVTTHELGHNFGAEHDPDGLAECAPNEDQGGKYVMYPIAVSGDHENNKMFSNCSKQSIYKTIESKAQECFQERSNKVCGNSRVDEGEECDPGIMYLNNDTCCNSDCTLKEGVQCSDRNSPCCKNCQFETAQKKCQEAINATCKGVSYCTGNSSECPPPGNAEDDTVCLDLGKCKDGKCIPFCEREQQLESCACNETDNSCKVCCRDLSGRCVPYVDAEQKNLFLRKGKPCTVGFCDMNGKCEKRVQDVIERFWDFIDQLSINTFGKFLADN
T1 sequence (P14780 107-707): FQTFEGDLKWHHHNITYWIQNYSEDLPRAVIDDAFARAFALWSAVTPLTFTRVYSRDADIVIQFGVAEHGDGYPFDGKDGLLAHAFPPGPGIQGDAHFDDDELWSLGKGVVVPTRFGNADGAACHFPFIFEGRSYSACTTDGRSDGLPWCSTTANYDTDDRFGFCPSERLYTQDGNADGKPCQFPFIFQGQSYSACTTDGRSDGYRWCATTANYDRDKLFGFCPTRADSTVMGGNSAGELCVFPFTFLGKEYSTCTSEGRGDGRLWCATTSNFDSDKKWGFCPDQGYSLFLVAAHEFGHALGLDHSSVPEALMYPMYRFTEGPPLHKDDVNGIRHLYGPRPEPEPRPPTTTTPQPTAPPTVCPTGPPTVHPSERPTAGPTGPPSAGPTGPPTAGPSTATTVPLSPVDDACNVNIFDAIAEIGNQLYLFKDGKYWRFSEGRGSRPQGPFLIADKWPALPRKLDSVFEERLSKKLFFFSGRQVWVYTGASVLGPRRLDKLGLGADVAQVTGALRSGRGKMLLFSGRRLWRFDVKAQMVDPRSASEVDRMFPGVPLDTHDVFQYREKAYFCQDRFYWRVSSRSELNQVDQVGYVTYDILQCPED
T5 sequence (P08254 100-272, stated change not applied): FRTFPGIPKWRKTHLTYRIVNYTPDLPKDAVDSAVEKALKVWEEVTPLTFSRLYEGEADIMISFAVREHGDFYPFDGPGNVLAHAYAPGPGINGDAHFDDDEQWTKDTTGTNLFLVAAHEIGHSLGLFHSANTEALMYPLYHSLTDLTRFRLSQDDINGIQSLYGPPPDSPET

B1: FLAG-tagged TIMP-3 (natural protein, UniProt P35625 24-211, looked up)
chain: CTCSPSHPQDAFCNSDIVIRAKVVGKKLVKEGPFGTLVYTIKQMKMYRGFTKMPHVQYIHTEASESLCGLKLEVNKYQYLLTGRVYDGKMYTGLCNFVERWDQLTLSQRKGLNYRYHLGCNCKIKSCYYLPCFVTSKNECLWTDMLSNFGYPGYQSKHYACIRQKGGYCSWYRGWAPPDKSIINATDP
notes: also called T3; [35S]TIMP-3
- stoichiometry N [1]: 1
- stoichiometry N [2]: 1
- stoichiometry N [3]: 1
- stoichiometry N [4]: 1
- Ki [5]: 0.55 nM
- Ki [6]: < 0.5 nM
- Ki [7]: 0.124 nM
- Ki [8]: 3.61 nM
- Ki [9]: 1.86 nM
